T1: mApple-chis (mouse, UniProt Q91Y47 19-389)
T1 construct: range 1-389; also called mapple-chis-biotin
T1 sequence (looked up): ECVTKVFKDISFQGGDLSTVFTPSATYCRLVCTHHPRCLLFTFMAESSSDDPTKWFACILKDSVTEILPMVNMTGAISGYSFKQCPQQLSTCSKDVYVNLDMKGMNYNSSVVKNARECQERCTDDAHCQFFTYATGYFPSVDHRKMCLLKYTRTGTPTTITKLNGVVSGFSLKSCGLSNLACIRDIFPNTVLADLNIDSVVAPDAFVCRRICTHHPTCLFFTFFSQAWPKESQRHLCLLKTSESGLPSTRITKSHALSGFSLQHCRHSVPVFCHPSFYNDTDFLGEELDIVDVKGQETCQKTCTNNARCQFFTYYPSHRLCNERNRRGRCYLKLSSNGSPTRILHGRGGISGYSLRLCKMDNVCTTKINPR


Columns and labels:
mApple-chis [1] = target: T1, mApple-chis; experiment: ELISA, clone lysate on coated antigen
Protocol: (§1) The FXI-binding positive phages obtained after panning were infected with blank E. coli and plated. Then 190 single colonies were randomly selected, named iFE 1 to iFE 190, and separately inoculated into 2TY-AG, and when the colonies were cultured to OD600 of about 0.8, IPTG was added to a final concentration of about 1 mM; after the expression was induced overnight at 25° C., single-domain antibodies were expressed in E. coli periplasm; the next day, the bacteria were harvested and lysed, and the supernatant was collected and used for ELISA assay. The plates were coated with hFXI, hApple and mApple, respectively, and then reacted overnight at 4° C., and the obtained sample lysis supernatant (the control group was E. coli lysis supernatant as a blank control) was added and reacted at room temperature for 2 hours. After washing, secondary antibody Goat anti-HA tag HRP (purchased from abcam) was added and reacted at room temperature for 2 hours. After washing, TMB chromogenic solution was added, absorbance values at 450 nm and 650 nm wavelengths were read, and a final absorbance value was obtained by subtracting the absorbance value at 650 nm wavelength from the absorbance value at 450 nm wavelength. When the OD value of the sample wells was more than 2 times larger than that of the control wells, the sample wells were determined as positive cloning wells.

hApple-chis [2] = target: T2, hApple-chis (human, UniProt P03951 19-387); experiment: ELISA, clone lysate on coated antigen
T2 construct: range 1-387; also called happle-chis-biotin
Protocol: as §1

[3] = target: T3, recombinant human factor XI (hFXI) (human, UniProt P03951 19-625); experiment: ELISA, clone lysate on coated antigen
T3 construct: also called hFXI-Chis; hFXI-CHis
Protocol: as §1

mApple-chis [4] = target: T1, mApple-chis; experiment: ELISA, purified tagged VHH on coated antigen
Protocol: (§2) Plates were coated with hApple and mApple proteins, respectively, at 0.5 μg/well and reacted overnight at 4° C. The plates were added with a gradient dilution series of the candidate single-domain antibodies with His and HA tags obtained in 1.4. and reacted at room temperature for 2 hours. After washing, a chicken anti-HA-tag secondary antibody (streptavidin-HRP, abcam) labeled with horseradish peroxidase was added and reacted at room temperature for 2 hours. After washing, a chromogenic solution was added, absorbance values at 450 nm and 650 nm wavelengths were read, and a final absorbance value was obtained by subtracting the absorbance value at 650 nm wavelength from the absorbance value at 450 nm wavelength. Data processing and mapping analysis were carried out by using software SotfMax Pro v5.4, and through four-parameter filling, binding curves of the candidate single-domain antibodies against FXI to hApple and mApple and EC₅₀ values were obtained so as to reflect the affinities of the candidate antibodies for hApple and mApple.

hApple-chis [5] = target: T2, hApple-chis; experiment: ELISA, purified tagged VHH on coated antigen
Protocol: as §2

| Binder | OD (mApple-chis [1]) | OD (hApple-chis [2]) | OD [3] | EC50 (mApple-chis [4]) | EC50 (hApple-chis [5]) | OD at 20 µg/mL (mApple-chis [4]) | OD at 20 µg/mL (hApple-chis [5]) |
| --- | --- | --- | --- | --- | --- | --- | --- |
| iFE163 (VHH, not shown: small tags and cut ends) VHH: QVQLQESGGDSVQAGGSLRLSCIASGFTFDDSDMGWYRQAPGHQCEFVSHITNDGTTYYADSVKGRFTISRDNAKNTVYLQMNSLKPEDAAVYYCAADAWGGGRSTCVNPIGYWGQGTQVTVSS | 1.07 OD | 1.09 OD | 1.46 OD | 0.0129 µg/mL | 0.0162 µg/mL |  |  |
| iFE49 (VHH, not shown: small tags and cut ends, also called antibody strain 49) VHH: QVQLQESGGDSVQAGGSLRLSCAASGLISTGLISTRHCMSWFRQAPGKEREEVAVIGSDGSTRYGDFAKGRFTISKDTAKNTLYLQMNSLEPEDTAMYYCAAGPLVSTASRRRTRCPEGPRENIYWGQGTQVTVSS | 0.061 OD | 1.26 OD | 0.998 OD |  | 1.16 µg/mL |  |  |
| iFE166 (VHH, not shown: small tags and cut ends) VHH: QVQLQESGGGSVQAGGSLRLSCVASGFTGCRNIMSWYRQAPGKDREFVSAIDSDGVDYADSVKGRFSISQHNDKKTMYLQMTSLKLEDTAMYYCRRVDFGTTSQCRGNYWGQGTQVTVSS | 1.83 OD | 1.69 OD | 1.24 OD | 0.0468 µg/mL | 0.0498 µg/mL |  |  |
| iFE148 (VHH, not shown: small tags and cut ends) VHH: QVQLQESGGGSVQAGGSLRLSCVASGYTFNNNFVGWFRQAPGKEREGVAAIYSLGGSTYYADSVKGRFTISQDNAKNTVYLQMDSLKPEDTATYYCAGAITWVPPLSHRRYTYWGQGTQVTVSS | 0.681 OD | 0.998 OD | 0.714 OD | 0.255 µg/mL | 0.263 µg/mL |  |  |
| iFE43 (VHH, not shown: small tags and cut ends, also called antibody strain 43) VHH: QVQLQESGGGSVQAGGSLRLSCAASGLRFSIYDWSWVRQAPGKGLEWVSAINSGGGVTSYADSVKGRVTISRDNAKNTLYLQMHSLKTEDTAVYYCATGDGGSWYRDGDWGQGTQVTVSS | 0.04 OD | 1.38 OD | 1.06 OD |  |  |  |  |
| iFE97 (VHH, not shown: small tags and cut ends, also called antibody strain 97) VHH: QVQLQESGGGSVQAGGSLRLSCTASEFTFDDSDMAWYRQAPGNECELVSTITSDGGTYYADSVKGRFTISQDNAKNTMYLQMNNLKPEDTAVYYCAADQWGSAEGDCTSSYPGGYWGQGTQVTVSS | 0.774 OD | 0.994 OD | 1.3 OD | 1.23 µg/mL | 0.735 µg/mL | 1.4 OD |  |
| iFE13 (VHH, not shown: small tags and cut ends, also called antibody strain 13) VHH: QVQLQESGGGSVQAGGSLRLSCAGDGYTYSMGAMAWFRQAPGKEREGVALIATSSGFISYTDSVKGRFTISQDDAKIYLQMNSLKPEDTAMYYCAAGTQFSWSPGSYNYWGQGTQVTVSS | 0.056 OD | 1.98 OD | 1.94 OD |  | 0.0195 µg/mL |  |  |
| iFE50 (VHH, not shown: small tags and cut ends, also called antibody strain 50) VHH: QVQLQESGGGLVQPGGSLRLSCAASGFTFSLYDMSWVRQAPGQGLEWVSAITNPGGSTYYADSVKDRFTISRDNAKNTLYLQMNSLKTEDTAVYYCAIGRRATFQREKDWGQGTQVTVSS | 0.042 OD | 1.05 OD | 0.439 OD |  |  |  |  |
| iFE96 (VHH, not shown: small tags and cut ends, also called antibody strain 96) VHH: QVQLQESGGGSVQAGGSLRLSCAASGFTASSNFMGWFRQAPGKEREGVAAIYTGGASTFYADSVKGRFTISQDNAKNTVYLEMDTLKPEDTAMYYCAAAPRWIAPLRADRYEYWGQGTQVTVSS | 0.334 OD | 0.58 OD | 0.407 OD |  | 1.25 µg/mL | 0.8 OD | 1.3 OD |
| iFE168 (VHH, not shown: small tags and cut ends, also called antibody strain 168) VHH: QVQLQESGGGSVQAGGSLRLSCAASGYTFSNNFVGWFRQAPGKKREGVATIYTLGSSTYYADSVKGRFTISQDNAKNTLYLEMNSLKPEDTAMYYCAAARGWVSPLDPARFVYWGQGTQVTVSS | 0.843 OD | 0.974 OD | 0.619 OD | 0.0584 µg/mL | 0.0205 µg/mL |  |  |
| iFE5 (VHH, not shown: small tags and cut ends, also called antibody strain 5) VHH: QVQLQESGGGSVQAGGSLRLSCAASGYTYSFNSMGWFRQAPGKEREGVAVIYLGSTHYADSVKGRFTISQDNAKNMVYLQMNSLKPEDTAMYYCAADLLEYDGTWFGSTYNYWGQGTQVTVSS | 0.069 OD | 1.62 OD | 1.33 OD |  | 0.0329 µg/mL |  |  |
| iFE56 (VHH, not shown: small tags and cut ends, also called antibody strain 56) VHH: QVQLQESGGGSVQAGGSLRLSCAASGHTYSSNYCMAWFRQAPGKEREGVAAIYSDGSTSYADSVKGRFTISKDNAKNTLYLQIDSLKPEDTSLYYCAATAYEGSWTGKQPLCLLYEYTYWGQGTQVTVSS | 0.04 OD | 1.46 OD | 1.42 OD |  | 0.323 µg/mL |  |  |
| iFE35 (VHH, not shown: small tags and cut ends, also called antibody strain 35) VHH: QVQLQESGGGSVQAGGSLGLSCTASGFTFDDSDMGWYRQAPGNECELVSTISSDGRGFYADSVKGRFTISQDRAKNTVYLHMNSLKPEDTAVYYCAAGWYGSFCSGLGQGTQVTVSS | 0.043 OD | 1.61 OD | 1.8 OD |  | 0.0241 µg/mL |  |  |
